We go through four molecules from patent US20230035235A1 (published 2023).

In experiment [1] the target is T1, SMARCA4 (SWI/SNF related, matrix associated, actin dependent regulator of chromatin, subfamily a, member 4) (human, UniProt P51532 1-1647, limits assumed).
T1 construct: Endogenous subunit co-purified in native PBAF complex; The crosslink positions count on P51532; also called BRG1; BAF190
Kind of experiment: inter-protein BS3 crosslink, CX-MS of HA-PHF10-purified PBAF complexes from HEK-293T cells.

The target of experiment [2] is T2, SMARCA4 (human, UniProt P51532 1-1647, limits assumed).
T2 construct: Endogenous PBAF subunit; numbering on the printed UniProt entry; also called BRG1; BAF190
The experiment in a line: inter-protein BS3 crosslinks (CX-MS), HA-BRD7-purified PBAF complexes from HEK-293T.

Another experiment concerns the target T3, SMARCE1 (human, UniProt Q969G3 1-411).
T3 construct: also called BAF57; Q969G3_SMCE1
The experiment in a line: HA affinity purification from HEK-293T nuclear extract, glycerol gradient fraction 15, mass spectrometry (co-purification in the complex).

Another experiment has as its target T4, ARID1A (human, UniProt O14497 2-2285).
T4 construct: also called BAF250A; O14497_ARI1A
Described as above.

Experiment [3] has as its target T5, A0A0A0MT49 (gene symbol printed cut off as 'SMA', about 188 kDa) (human).
T5 construct: Separate database entry of the search; gene symbol cut off in print
The description is as above.

The target of experiment [4] is T6, G5E975 (gene symbol printed cut off as 'SMA', 45.0 kDa) (human).
T6 construct: Separate database entry of the search; gene symbol cut off in print
Described as above.

Another experiment concerns the target T7, SS18 (human, UniProt Q15532 2-418, limits assumed).
T7 construct: also called Q15532_SSXT
Described as above.

Experiment [5] addresses T8, H0Y3S9 (gene symbol printed cut off as 'ARID', 29.4 kDa) (human).
T8 construct: Which ARID gene is meant cannot be told from the print
Described as above.

The target of experiment [6] is T9, DPF3, entry F8W7T1 (46.4 kDa) (human).
T9 construct: Separate database entry of DPF3; also called F8W7T1_F8W7
T9 sequence (Q92784 whole entry): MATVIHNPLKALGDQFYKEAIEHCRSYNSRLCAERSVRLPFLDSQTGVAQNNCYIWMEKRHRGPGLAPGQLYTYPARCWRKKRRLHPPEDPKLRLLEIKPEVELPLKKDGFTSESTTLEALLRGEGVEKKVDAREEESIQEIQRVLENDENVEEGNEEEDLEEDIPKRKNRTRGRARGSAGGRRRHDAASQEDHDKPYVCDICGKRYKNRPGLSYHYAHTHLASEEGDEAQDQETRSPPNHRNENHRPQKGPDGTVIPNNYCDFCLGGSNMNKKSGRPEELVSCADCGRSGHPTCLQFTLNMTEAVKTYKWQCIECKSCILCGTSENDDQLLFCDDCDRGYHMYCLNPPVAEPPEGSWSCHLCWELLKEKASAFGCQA
The description is as above.

Another experiment addresses T10, SMARCC1 (human, UniProt Q92922 2-1105).
T10 construct: also called BAF155; Q92922_SMRC1
The experiment is described as above.

Experiment [7] concerns the target T11, DPF1, entry C8C3P2 (45.0 kDa) (human).
T11 construct: Separate database entry of DPF1; also called C8C3P2_C8C3
The description is as above.

For experiment [8], the target named is T12, PBRM1, entry C9J053 (13.6 kDa) (human).
T12 construct: Separate fragment entry; gene symbol cut off in print; also called C9J053_C9J053
The experiment is described as above.

For a further experiment, the target named is T13, ARID1B (human, UniProt Q8NFD5 84-2319, limits assumed).
T13 construct: also called BAF250B; Q8NFD5_ARI1B
The description is as above.

The next experiment deals with T14, SMARCA2 (human, UniProt P51531 1-1590, limits assumed).
T14 construct: also called BRM; BAF190
Described as above.

The target in a further experiment is T15, SMARCC2 (human, UniProt Q8TAQ2 1-1214, limits assumed).
T15 construct: also called BAF170; Q8TAQ2_SMRC2
The description is as above.

The target in experiment [9] is T16, SMARCA4 (human, UniProt P51532 1-1647, limits assumed).
T16 construct: also called BRG1; BAF190
The experiment is described as above.

Another experiment has as its target T17, ARID2 (human, UniProt Q68CP9 2-1835).
T17 construct: also called BAF200; Q68CP9_ARID2
The description is as above.

The target in experiment [10] is T18, SMARCC1 (SWI/SNF related, matrix associated, actin dependent regulator of chromatin subfamily c member 1) (human, UniProt Q92922 1-1105).
T18 construct: also called BAF155; HA-SMARCC1
Kind of experiment: HA-GLTSCR1L purification from HEK-293T cells, silver stain and gradient MS.

T4 sequence (O14497 2-2285 limits assumed): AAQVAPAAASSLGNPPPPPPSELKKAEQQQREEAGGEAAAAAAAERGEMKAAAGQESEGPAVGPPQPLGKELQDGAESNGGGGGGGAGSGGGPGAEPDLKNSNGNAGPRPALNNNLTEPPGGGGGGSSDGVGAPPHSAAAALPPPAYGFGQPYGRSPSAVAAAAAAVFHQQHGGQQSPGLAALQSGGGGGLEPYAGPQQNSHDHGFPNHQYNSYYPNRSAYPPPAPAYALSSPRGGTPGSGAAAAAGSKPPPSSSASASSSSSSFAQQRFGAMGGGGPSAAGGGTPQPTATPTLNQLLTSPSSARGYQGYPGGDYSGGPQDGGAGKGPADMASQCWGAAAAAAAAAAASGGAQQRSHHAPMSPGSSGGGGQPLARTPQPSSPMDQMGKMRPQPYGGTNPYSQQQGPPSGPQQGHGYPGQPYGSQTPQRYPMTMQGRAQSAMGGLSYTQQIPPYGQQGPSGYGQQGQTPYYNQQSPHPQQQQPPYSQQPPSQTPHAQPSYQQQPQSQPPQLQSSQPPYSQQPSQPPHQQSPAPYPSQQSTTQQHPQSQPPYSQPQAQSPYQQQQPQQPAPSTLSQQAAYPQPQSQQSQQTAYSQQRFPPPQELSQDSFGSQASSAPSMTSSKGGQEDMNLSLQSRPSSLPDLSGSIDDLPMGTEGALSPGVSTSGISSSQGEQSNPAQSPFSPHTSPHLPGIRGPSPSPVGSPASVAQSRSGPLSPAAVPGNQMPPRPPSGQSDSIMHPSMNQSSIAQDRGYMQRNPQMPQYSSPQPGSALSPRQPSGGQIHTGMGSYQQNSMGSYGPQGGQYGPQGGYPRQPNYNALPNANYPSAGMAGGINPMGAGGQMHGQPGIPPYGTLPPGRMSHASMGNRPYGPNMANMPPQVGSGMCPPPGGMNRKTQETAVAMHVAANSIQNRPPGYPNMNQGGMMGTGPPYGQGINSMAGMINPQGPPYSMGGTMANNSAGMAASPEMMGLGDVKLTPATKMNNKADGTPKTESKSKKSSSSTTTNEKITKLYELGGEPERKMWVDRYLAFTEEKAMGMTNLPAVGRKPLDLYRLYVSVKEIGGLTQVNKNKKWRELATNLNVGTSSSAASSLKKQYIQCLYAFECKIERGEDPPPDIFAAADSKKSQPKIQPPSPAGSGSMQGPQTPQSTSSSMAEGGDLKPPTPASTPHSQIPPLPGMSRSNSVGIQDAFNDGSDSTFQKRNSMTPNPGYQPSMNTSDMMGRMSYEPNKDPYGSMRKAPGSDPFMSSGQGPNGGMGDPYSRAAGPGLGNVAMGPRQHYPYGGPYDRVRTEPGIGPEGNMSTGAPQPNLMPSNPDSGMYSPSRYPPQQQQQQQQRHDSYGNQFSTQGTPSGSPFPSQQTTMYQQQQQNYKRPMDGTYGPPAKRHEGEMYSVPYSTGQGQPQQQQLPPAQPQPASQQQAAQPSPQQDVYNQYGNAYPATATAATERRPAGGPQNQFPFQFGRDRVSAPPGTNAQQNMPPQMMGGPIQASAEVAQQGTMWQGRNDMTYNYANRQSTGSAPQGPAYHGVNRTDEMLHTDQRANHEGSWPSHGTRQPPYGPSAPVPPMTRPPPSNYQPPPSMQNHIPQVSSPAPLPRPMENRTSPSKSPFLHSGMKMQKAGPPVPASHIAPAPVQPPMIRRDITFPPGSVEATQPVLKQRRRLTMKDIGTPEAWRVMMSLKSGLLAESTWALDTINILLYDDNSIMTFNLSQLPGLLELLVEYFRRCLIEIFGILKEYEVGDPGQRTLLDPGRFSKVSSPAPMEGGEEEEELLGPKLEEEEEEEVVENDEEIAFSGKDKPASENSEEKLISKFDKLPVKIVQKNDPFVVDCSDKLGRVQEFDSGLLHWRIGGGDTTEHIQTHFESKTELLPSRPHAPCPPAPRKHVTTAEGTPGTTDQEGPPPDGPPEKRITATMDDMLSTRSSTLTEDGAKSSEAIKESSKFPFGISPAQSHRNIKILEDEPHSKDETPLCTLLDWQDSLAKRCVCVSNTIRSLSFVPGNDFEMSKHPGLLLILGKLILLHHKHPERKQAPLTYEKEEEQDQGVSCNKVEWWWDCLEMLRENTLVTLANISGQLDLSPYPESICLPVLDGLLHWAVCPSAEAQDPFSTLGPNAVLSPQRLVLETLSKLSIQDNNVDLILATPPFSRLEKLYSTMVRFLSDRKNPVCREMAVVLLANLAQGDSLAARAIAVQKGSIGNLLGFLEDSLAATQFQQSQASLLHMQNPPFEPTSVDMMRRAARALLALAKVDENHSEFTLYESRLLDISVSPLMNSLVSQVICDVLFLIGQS
T17 sequence (Q68CP9 2-1835 limits assumed): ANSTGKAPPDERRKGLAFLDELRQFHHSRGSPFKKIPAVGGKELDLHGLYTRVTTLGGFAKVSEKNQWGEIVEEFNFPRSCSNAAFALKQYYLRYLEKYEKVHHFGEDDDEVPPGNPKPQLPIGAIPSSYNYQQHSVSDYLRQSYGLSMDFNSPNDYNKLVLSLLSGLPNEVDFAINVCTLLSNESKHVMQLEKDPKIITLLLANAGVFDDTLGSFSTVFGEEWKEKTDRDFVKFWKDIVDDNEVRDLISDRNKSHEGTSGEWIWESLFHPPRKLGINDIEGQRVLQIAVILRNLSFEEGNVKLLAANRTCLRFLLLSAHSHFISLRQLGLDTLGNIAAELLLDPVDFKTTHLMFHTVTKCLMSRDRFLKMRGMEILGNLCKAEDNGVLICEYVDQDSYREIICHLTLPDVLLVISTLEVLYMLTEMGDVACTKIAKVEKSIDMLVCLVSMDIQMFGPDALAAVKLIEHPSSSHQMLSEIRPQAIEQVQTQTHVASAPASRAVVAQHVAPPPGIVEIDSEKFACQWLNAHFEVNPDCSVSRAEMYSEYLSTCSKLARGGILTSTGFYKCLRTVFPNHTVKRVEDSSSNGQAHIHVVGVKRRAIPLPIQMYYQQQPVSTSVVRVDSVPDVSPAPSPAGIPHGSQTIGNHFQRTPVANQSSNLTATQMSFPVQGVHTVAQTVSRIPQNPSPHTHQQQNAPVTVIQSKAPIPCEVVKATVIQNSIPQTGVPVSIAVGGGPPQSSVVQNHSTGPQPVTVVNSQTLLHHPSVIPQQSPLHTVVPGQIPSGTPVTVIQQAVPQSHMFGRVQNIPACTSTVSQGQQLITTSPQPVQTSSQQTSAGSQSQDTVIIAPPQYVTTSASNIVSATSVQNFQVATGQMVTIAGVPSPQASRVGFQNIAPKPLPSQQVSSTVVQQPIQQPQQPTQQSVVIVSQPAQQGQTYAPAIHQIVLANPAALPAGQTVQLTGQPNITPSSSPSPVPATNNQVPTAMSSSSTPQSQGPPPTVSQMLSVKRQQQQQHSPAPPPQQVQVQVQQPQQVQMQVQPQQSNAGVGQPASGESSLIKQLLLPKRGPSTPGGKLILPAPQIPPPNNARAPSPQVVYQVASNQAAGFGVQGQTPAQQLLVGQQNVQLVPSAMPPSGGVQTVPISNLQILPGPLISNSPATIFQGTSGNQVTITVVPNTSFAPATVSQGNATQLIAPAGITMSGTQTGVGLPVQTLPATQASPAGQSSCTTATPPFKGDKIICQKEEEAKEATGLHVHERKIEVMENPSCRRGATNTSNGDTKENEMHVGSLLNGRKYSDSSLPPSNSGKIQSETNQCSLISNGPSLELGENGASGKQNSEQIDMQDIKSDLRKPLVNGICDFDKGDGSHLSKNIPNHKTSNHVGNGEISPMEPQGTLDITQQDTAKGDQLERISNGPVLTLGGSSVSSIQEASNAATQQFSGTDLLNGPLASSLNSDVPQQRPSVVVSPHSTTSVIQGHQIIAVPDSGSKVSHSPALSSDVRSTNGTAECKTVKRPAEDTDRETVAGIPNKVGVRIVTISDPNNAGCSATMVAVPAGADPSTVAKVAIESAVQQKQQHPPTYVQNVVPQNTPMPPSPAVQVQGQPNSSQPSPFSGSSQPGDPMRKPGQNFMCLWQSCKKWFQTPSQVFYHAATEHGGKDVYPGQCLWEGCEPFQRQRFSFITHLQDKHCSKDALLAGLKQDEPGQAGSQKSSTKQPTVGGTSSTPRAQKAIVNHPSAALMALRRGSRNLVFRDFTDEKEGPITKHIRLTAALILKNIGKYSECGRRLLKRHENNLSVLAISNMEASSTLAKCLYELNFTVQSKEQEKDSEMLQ
T3 sequence (Q969G3 whole entry): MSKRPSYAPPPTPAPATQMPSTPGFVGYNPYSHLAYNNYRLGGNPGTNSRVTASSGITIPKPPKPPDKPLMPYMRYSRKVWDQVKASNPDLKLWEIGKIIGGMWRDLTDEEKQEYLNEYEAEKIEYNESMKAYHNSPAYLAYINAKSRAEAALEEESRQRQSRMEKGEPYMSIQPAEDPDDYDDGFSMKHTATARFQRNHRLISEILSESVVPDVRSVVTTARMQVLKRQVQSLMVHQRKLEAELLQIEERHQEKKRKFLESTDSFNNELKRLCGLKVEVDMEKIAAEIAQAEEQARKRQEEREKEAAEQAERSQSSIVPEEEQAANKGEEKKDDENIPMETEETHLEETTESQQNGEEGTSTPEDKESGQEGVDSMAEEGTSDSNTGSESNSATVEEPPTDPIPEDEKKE

B1: BRD7 (Bromodomain-containing protein 7) (other, human, UniProt Q9NPI1 1-651, looked up)
chain: MGKKHKKHKSDKHLYEEYVEKPLKLVLKVGGNEVTELSTGSSGHDSSLFEDKNDHDKHKDRKRKKRKKGEKQIPGEEKGRKRRRVKEDKKKRDRDRVENEAEKDLQCHAPVRLDLPPEKPLTSSLAKQEEVEQTPLQEALNQLMRQLQRKDPSAFFSFPVTDFIAPGYSMIIKHPMDFSTMKEKIKNNDYQSIEELKDNFKLMCTNAMIYNKPETIYYKAAKKLLHSGMKILSQERIQSLKQSIDFMADLQKTRKQKDGTDTSQSGEDGGCWQREREDSGDAEAHAFKSPSKENKKKDKDMLEDKFKSNNLEREQEQLDRIVKESGGKLTRRLVNSQCEFERRKPDGTTTLGLLHPVDPIVGEPGYCPVRLGMTTGRLQSGVNTLQGFKEDKRNKVTPVLYLNYGPYSSYAPHYDSTFANISKDDSDLIYSTYGEDSDLPSDFSIHEFLATCQDYPYVMADSLLDVLTKGGHSRTLQEMEMSLPEDEGHTRTLDTAKEMEITEVEPPGRLDSSTQDRLIALKAVTNFGVPVEVFDSEEAEIFQKKLDETTRLLRELQEAQNERLSTRPPPNMICLLGPSYREMHLAEQVTNNLKELAQQVTPGDIVSTYGVRKAMGISIPSPVMENNFVDLTEDTEEPKKTDVAECGPGGS
notes: Endogenous subunit co-purified in native PBAF complex; The crosslink positions count on Q9NPI1; also called Q9NPI1
With B1, the binding result in experiment [1] is “binds”.

B2: PHF10 (other, human, UniProt Q8WUB8 2-498, looked up)
chain: AAAAGPGAALSPRPCDSDPATPGAQSPKDDNEDNSNDGTQPSKRRRMGSGDSSRSCETSSQDLGFSYYPAENLIEYKWPPDETGEYYMLQEQVSEYLGVTSFKRKYPDLERRDLSHKEKLYLRELNVITETQCTLGLTALRSDEVIDLMIKEYPAKHAEYSVILQEKERQRITDHYKEYSQMQQQNTQKVEASKVPEYIKKAAKKAAEFNSNLNRERMEERRAYFDLQTHVIQVPQGKYKVLPTERTKVSSYPVALIPGQFQEYYKRYSPDELRYLPLNTALYEPPLDPELPALDSDGDSDDGEDGRGDEKRKNKGTSDSSSGNVSEGESPPDSQEDSFQGRQKSKDKAATPRKDGPKRSVLSKSVPGYKPKVIPNAICGICLKGKESNKKGKAESLIHCSQCENSGHPSCLDMTMELVSMIKTYPWQCMECKTCIICGQPHHEEEMMFCDMCDRGYHTFCVGLGAIPSGRWICDCCQRAPPTPRKVGRRGKNSKEG
notes: Endogenous PBAF subunit; numbering on the printed UniProt entry; also called BAF45A
For the molecule B2, in the experiment with SMARCA4 [2], the binding result is recorded as “binds”.

B3: HA-SMARCD1 (other, human, UniProt Q96GM5 1-515, looked up)
chain: MAARAGFQSVAPSGGAGASGGAGAAAALGPGGTPGPPVRMGPAPGQGLYRSPMPGAAYPRPGMLPGSRMTPQGPSMGPPGYGGNPSVRPGLAQSGMDQSRKRPAPQQIQQVQQQAVQNRNHNAKKKKMADKILPQRIRELVPESQAYMDLLAFERKLDQTIMRKRLDIQEALKRPIKQKRKLRIFISNTFNPAKSDAEDGEGTVASWELRVEGRLLEDSALSKYDATKQKRKFSSFFKSLVIELDKDLYGPDNHLVEWHRTATTQETDGFQVKRPGDVNVRCTVLLMLDYQPPQFKLDPRLARLLGIHTQTRPVIIQALWQYIKTHKLQDPHEREFVICDKYLQQIFESQRMKFSEIPQRLHALLMPPEPIIINHVISVDPNDQKKTACYDIDVEVDDTLKTQMNSFLLSTASQQEIATLDNKIHETIETINQLKTQREFMLSFARDPQGFINDWLQSQCRDLKTMTDVVGNPEEERRAEFYFQPWAQEAVCRYFYSKVQQRRQELEQALGIRNT
notes: also called BAF60A; Q96GM5_SMRD1; not shown: HA tag
Take B3: the “total peptides” value in the experiment with SMARCE1 stood at 114 peptides; with ARID1A, 321 peptides; in experiment [3] it was 8 peptides; in experiment [4], 3 peptides; with SS18 it was 3 peptides; in experiment [5], 1 peptides. Moreover, the “total peptides” value in experiment [6] worked out at 2 peptides; in the experiment with SMARCC1 it was 403 peptides; in [7], 1 peptides; in experiment [8], 1 peptides; with ARID1B, 189 peptides; with SMARCA2 it was 206 peptides. In addition, the “total peptides” value with SMARCC2 came out at 172 peptides; with SMARCA4 [9], 153 peptides; in the experiment with ARID2 it was 55 peptides. The “unique peptides” value worked out at 33 peptides in the experiment with SMARCE1; 100 peptides in the experiment with ARID1A; 2 peptides in [3]; 2 peptides in experiment [4]; 2 peptides in the experiment with SS18; 1 peptides in experiment [5]. In addition, the “unique peptides” value in experiment [6] turned out to be 1 peptides; with SMARCC1, 88 peptides; in experiment [7], 1 peptides; in experiment [8], 1 peptides; with ARID1B, 75 peptides; with SMARCA2, 74 peptides. For the same molecule, the “unique peptides” value amounted to 55 peptides in the experiment with SMARCC2, 53 peptides in the experiment with SMARCA4 [9] and 41 peptides with ARID2.

B4: GLTSCR1L (BRD4 Interacting Chromatin Remodeling Complex Associated Protein Like) (other, human, UniProt Q6AI39 1-1079, looked up)
chain: MDDDDDSCLLDLIGDPQALNYFLHGPSNKSSNDDLTNAGYSAANSNSIFANSSNADPKSSLKGVSNQLGEGPSDGLPLSSSLQFLEDELESSPLPDLTEDQPFDILQKSLQEANITEQTLAEEAYLDASIGSSQQFAQAQLHPSSSASFTQASNVSNYSGQTLQPIGVTHVPVGASFASNTVGVQHGFMQHVGISVPSQHLSNSSQISGSGQIQLIGSFGNHPSMMTINNLDGSQIILKGSGQQAPSNVSGGLLVHRQTPNGNSLFGNSSSSPVAQPVTVPFNSTNFQTSLPVHNIIIQRGLAPNSNKVPINIQPKPIQMGQQNTYNVNNLGIQQHHVQQGISFASASSPQGSVVGPHMSVNIVNQQNTRKPVTSQAVSSTGGSIVIHSPMGQPHAPQSQFLIPTSLSVSSNSVHHVQTINGQLLQTQPSQLISGQVASEHVMLNRNSSNMLRTNQPYTGPMLNNQNTAVHLVSGQTFAASGSPVIANHASPQLVGGQMPLQQASPTVLHLSPGQSSVSQGRPGFATMPSVTSMSGPSRFPAVSSASTAHPSLGSAVQSGSSGSNFTGDQLTQPNRTPVPVSVSHRLPVSSSKSTSTFSNTPGTGTQQQFFCQAQKKCLNQTSPISAPKTTDGLRQAQIPGLLSTTLPGQDSGSKVISASLGTAQPQQEKVVGSSPGHPAVQVESHSGGQKRPAAKQLTKGAFILQQLQRDQAHTVTPDKSHFRSLSDAVQRLLSYHVCQGSMPTEEDLRKVDNEFETVATQLLKRTQAMLNKYRCLLLEDAMRINPSAEMVMIDRMFNQEERASLSRDKRLALVDPEGFQADFCCSFKLDKAAHETQFGRSDQHGSKASSSLQPPAKAQGRDRAKTGVTEPMNHDQFHLVPNHIVVSAEGNISKKTECLGRALKFDKVGLVQYQSTSEEKASRREPLKASQCSPGPEGHRKTSSRSDHGTESKLSSILADSHLEMTCNNSFQDKSLRNSPKNEVLHTDIMKGSGEPQPDLQLTKSLETTFKNILELKKAGRQPQSDPTVSGSVELDFPNFSPMASQENCLEKFIPDHSEGVVETDSILEAAVNSILEC
notes: also called BICRAL; HA-GLTSCR1L
Turning to B4, the binding result in experiment [10] is “binds”.
